T1: StBEL5-GST;POTH1-GST (Solanum tuberosum (potato);Solanum …, UniProt Q8LLE4;P93588 1-688;1-345, |)
T1 sequence 1: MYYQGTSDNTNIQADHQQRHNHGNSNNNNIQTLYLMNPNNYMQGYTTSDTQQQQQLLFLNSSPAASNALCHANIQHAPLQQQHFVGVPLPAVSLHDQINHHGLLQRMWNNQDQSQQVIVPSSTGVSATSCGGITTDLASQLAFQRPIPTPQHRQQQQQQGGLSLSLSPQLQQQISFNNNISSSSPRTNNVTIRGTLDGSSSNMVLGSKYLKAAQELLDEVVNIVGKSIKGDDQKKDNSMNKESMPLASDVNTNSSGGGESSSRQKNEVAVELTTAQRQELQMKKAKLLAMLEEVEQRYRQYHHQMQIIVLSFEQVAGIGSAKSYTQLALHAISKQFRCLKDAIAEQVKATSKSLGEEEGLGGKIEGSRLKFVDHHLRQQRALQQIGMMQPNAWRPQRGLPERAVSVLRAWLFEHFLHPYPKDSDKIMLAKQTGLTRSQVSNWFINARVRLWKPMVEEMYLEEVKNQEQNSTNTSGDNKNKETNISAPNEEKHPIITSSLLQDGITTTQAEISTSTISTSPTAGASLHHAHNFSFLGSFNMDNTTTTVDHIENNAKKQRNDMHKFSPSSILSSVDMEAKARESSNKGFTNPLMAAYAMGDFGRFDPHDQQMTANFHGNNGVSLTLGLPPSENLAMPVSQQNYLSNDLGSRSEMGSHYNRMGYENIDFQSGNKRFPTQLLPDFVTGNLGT
T1 sequence 2: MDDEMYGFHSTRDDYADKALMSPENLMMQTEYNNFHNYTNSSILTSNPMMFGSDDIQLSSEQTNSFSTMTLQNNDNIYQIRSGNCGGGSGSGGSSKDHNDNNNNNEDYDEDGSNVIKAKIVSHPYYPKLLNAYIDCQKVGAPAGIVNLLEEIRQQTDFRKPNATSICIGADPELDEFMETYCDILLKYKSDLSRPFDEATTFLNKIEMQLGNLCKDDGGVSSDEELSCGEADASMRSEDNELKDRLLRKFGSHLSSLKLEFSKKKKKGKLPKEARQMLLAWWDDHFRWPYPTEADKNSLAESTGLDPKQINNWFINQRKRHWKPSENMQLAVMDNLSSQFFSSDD


Legend:
[1] = target: NTH1 (tobacco); experiment: two-hybrid; Matchmaker system (Clontech), yeast strain pJ69-2A; StBELs in pACT-AD (GAL4 activation domain), KNOX proteins in pBridge (GAL4-binding domain); co-transformation, selection on -Leu/-Trp/-His/-Ade; lacZ induction quantified by β-galactosidase assay (Miller units), three replicate samples
[2] = target: POTATO HOMEOBOX1 (POTH1) (potato); experiment: as above
[3] = target: T1, StBEL5-GST;POTH1-GST; experiment: EMSA; 2 mM Mg2+; 20 mM HEPES pH 7.5, 50 mM KCl, 2 mM MgCl2, 0.5 mM EDTA, 1 mM DTT, 10% glycerol, 0.5% Triton X-100, 20 ng/ul BSA, 50 ng/ul poly(dI-dC), 20 ul, on ice 60 min; 10; settings: protein: recombinant;recombinant; tags: C-terminal GST;C-terminal GST; copies: 1;1; label: 3' biotin; blunt

| Molecule | beta-galactosidase activity [1] | also measured |
| --- | --- | --- |
| StBEL6 (natural protein) | 58 Miller units | – |
| StBEL13 (from UniProt M1AMS7 1-738) (natural protein) | 233 units | – |
| StBEL31 (from UniProt M0ZWL8 1-423) (natural protein) | 25 Miller units | – |
| StBEL33 (from UniProt M1C8Y5 1-505) (natural protein) | – | beta-galactosidase activity [2]: 274 units |
| StBEL34 bait (BEL34S/BEL34A) (dsDNA) DNA 1: CCTTTCAATAAGATTATTGACGGTGACAATACTCGCCGTCAAA DNA 2: TTTGACGGCGAGTATTGTCACCGTCAATAATCTTATTGAAAGG | – | binding result [3]: binds |

Source: PMC3904721, “The BEL1-like family of transcription factors in potato”
